Where no end group is shown, it is not given here.
B1: Phage-428 clonal phage peptide MNWCPSTMWNRCLT (peptide)
peptide: MNWCPSTMWNRCLT
notes: tested as crude clonal phage supernatant
B2: Phage-436 clonal phage peptide MDWCPRDRWADCFN (peptide)
peptide: MDWCPRDRWADCFN
notes: as for B1
B3: Phage-440 clonal phage peptide MDWCPRDRWVDCFN (peptide)
peptide: MDWCPRDRWVDCFN
notes: as for B1
B4: Phage-437 clonal phage peptide MDWCPVDRWADCFN (peptide)
peptide: MDWCPVDRWADCFN
notes: as for B1
B5: Phage-426 clonal phage peptide MFLCPSAMWNRCFY (peptide)
peptide: MFLCPSAMWNRCFY
notes: as for B1
B6: Phage-423 clonal phage peptide INLCPTPMWNRCWL (peptide)
peptide: INLCPTPMWNRCWL
notes: as for B1
B7: Phage-431 clonal phage peptide MAWCPADQWHECFN (peptide)
peptide: MAWCPADQWHECFN
notes: as for B1
B8: Phage-424 clonal phage peptide ITQCPSTMWNRCSV (peptide)
peptide: ITQCPSTMWNRCSV
notes: as for B1
B9: Phage-422 clonal phage peptide MYWCPINMWDYCYA (peptide)
peptide: MYWCPINMWDYCYA
notes: as for B1
B10: Phage-434 clonal phage peptide IVWCPTTQWNRCAT (peptide)
peptide: IVWCPTTQWNRCAT
notes: as for B1
B11: Phage-439 clonal phage peptide MDWCPRDRWDVCFA (peptide)
peptide: MDWCPRDRWDVCFA
notes: as for B1
B12: Phage-427 clonal phage peptide VILCPTTMWNRCFH (peptide)
peptide: VILCPTTMWNRCFH
notes: as for B1
B13: Phage-435 clonal phage peptide MDWCPRDRWVDCYA (peptide)
peptide: MDWCPRDRWVDCYA
notes: as for B1
B14: Phage-433 clonal phage peptide MAWCPWAQFDECLA (peptide)
peptide: MAWCPWAQFDECLA
notes: as for B1
B15: Phage-432 clonal phage peptide IDWCPIIQGLPCFA (peptide)
peptide: IDWCPIIQGLPCFA
notes: as for B1
B16: Phage-438 clonal phage peptide MDWCPMSRWAFCFD (peptide)
peptide: MDWCPMSRWAFCFD
notes: as for B1
B17: Phage-417 clonal phage peptide IYWCPTAMWNRCSA (peptide)
peptide: IYWCPTAMWNRCSA
notes: as for B1
B18: Phage-425 clonal phage peptide MDLCPTAMWNRCFY (peptide)
peptide: MDLCPTAMWNRCFY
notes: as for B1
B19: Phage-441 clonal phage peptide MDWCPRDRWDDCFF (peptide)
peptide: MDWCPRDRWDDCFF
notes: as for B1
B20: Phage-418 clonal phage peptide MYWCPKYMWSECFA (peptide)
peptide: MYWCPKYMWSECFA
notes: as for B1
B21: Phage-29 (peptide, not shown: large carriers)
peptide: MDWCPRDLWVHCFA
modifications: cysteine pairing not given here; also: fused to phage pIII, linker not given here
notes: Clonal phage supernatant

target: T1, Anti-CD28 scFv (VH - linker 1 - VL) (biotinylated (site not stated)); test: phage ELISA; biotinylated anti-CD28 scFv on neutravidin plate, wells pre-incubated with soluble CD28 as competitor, anti-M13-HRP detection
T1 construct: Biotinylated and captured on neutravidin-coated plates in the phage panning ELISA
T1 sequence (scFv, as listed by the source): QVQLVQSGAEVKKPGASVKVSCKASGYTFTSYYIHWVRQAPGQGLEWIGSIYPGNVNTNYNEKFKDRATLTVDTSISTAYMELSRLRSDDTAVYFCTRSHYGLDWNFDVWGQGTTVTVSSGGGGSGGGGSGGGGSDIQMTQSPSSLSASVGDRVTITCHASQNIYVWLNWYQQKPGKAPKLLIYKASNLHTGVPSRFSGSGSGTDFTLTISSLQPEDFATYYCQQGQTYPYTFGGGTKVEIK

First: B1
Second: B2
The “CD28 scFv signal in presence of CD28” value of the first is lower: 0.07 for the first, 0.08 for the second.

Going from B3 to B4, the “CD28 scFv signal in presence of CD28” value rises from 0.132 to 0.315.

Compared with B5, B6 is lower in “CD28 scFv signal in presence of CD28” value: 0.114 for the first, 0.101 for the second.

Going from B7 to B8, the “CD28 scFv signal in presence of CD28” value falls from 0.456 to 0.108.

Going from B9 to B10, the “CD28 scFv signal in presence of CD28” value falls from 0.088 to 0.083.

First: B11
Second: B12
The “CD28 scFv signal in presence of CD28” value of the first is higher: 0.096 for the first, 0.084 for the second.

Going from B13 to B14, the “CD28 scFv signal in presence of CD28” value falls from 0.403 to 0.078.

Compared with B15, B16 is higher in “CD28 scFv signal in presence of CD28” value: 0.065 for the first, 0.115 for the second.

Compared with B17, B18 is higher in “CD28 scFv signal in presence of CD28” value: 0.073 for the first, 0.084 for the second.

Going from B19 to B20, the “CD28 scFv signal in presence of CD28” value falls from 0.183 to 0.099.

target: anti-CD28 Fab; test: competition ELISA, peptide titrated 0-100 uM against 1 nM anti-CD28 Fab, plate-bound CD28 as competitor
Sequence (VH, as listed by the source, chain 1 of 2): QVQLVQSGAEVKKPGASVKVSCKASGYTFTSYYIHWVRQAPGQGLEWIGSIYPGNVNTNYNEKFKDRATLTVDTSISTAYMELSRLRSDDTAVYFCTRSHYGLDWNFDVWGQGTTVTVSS
Sequence (VL, as listed by the source, chain 2 of 2): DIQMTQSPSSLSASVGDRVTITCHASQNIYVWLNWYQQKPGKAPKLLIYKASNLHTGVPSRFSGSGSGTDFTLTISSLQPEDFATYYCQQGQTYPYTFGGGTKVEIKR

Going from ACAAGASYAWPYCL [Peptide-99] to SCAAAASYAWPYCL [Peptide-100], the IC50 rises from 21 µM to over 100 µM.

First: SCAAGASAAWPYCL [Peptide-102]
Second: SCAAGASYAWPYCA [Peptide-106]
The IC50 of the first is higher: over 100 µM for the first, 76.4 µM for the second.

First: SCAAGASYAWAYCL [Peptide-104]
Second: SCAAGAAYAWPYCL [Peptide-101]
The IC50 of the first is higher: over 100 µM for the first, 7.42 µM for the second.

First: SCAAGASYAAPYCL [Peptide-103]
Second: SCAAGASYAWPACL [Peptide-105]
The IC50 of the first is higher: over 100 µM for the first, 13 µM for the second.

ACAGHAWQYINKCL [Peptide-107] and YCAGAAWQYINKCL [Peptide-109] cannot be ordered by IC50: over 100 µM for the first, over 100 µM for the second.

Compared with YCAGHAAQYINKCL [Peptide-110], YCAGHAWQYANKCL [Peptide-113] is 32-fold higher in IC50: 3.16 µM for the first, 102 µM for the second. The first is the more potent here.

Compared with YCAGHAWQYIAKCL [Peptide-114], YCAGHAWQYINACL [Peptide-115] is higher in IC50: 5.49 µM for the first, over 100 µM for the second. The first is the more potent here.

YCAAHAWQYINKCL [Peptide-108] and YCAGHAWQAINKCL [Peptide-112] cannot be ordered by IC50: over 100 µM for the first, over 100 µM for the second.

First: YCAGHAWAYINKCL [Peptide-111]
Second: YCAGHAWQYINKCA [Peptide-116]
The IC50 of the first is 8-fold lower: 12.3 µM for the first, 98.6 µM for the second.

target: anti-CD28 scFv (VH - linker 1 - VL) (biotinylated (site not stated)); test: same phage ELISA, wells pre-incubated with soluble CD28 (competitor)
Sequence (scFv, as listed by the source): as the sequence (scFv, as listed by the source) above

First: MDWCPLHMWHECFS (peptide, not shown: large carriers, Clonal phage supernatant) [Phage-23]
Second: B21
The “CD28 scFv signal in presence of CD28” value of the first is lower: 0.151 for the first, 0.179 for the second.

target: T2, Anti-PSMA Fab (SEQ ID NOs: 19, 20); test: phage binding ELISA; Fab-coated wells pre-incubated with PSMA antigen (competitor: PSMA), then clonal phage, anti-M13 HRP detection
T2 construct: Biotinylated and captured on neutravidin coated plates in the phage ELISA; also called 006 PSMA Fab
Description: (§1) Clonal phage were harvested as crude supernatants and screened via standard ELISAs. […] Prior to the addition of clonal phage. wells were incubated with blocking buffer and PSMA antigen or blocking buffer alone. Without washing or aspirating, clonal phage supernatants were then added to the wells and incubated for a short time. Wells were then washed followed by detection of bound phage using a horse radish conjugated anti-M13 antibody.

Compared with FCNWVDGDVWVVCK (tested as crude phage supernatant) [Phage-1734 (clonal phage displaying the peptide of SEQ ID NO: 2018)], SIPCIPRDWLCPIK (tested as crude phage supernatant) [Phage-1725 (clonal phage displaying the peptide of SEQ ID NO: 2009)] is higher in “Anti-PSMA Fab signal in the presence of PSMA” value (“Anti-PSMA Fab signal” for short): 0.0607 for the first, 0.239 for the second.

Going from PLCGTEEVWWECRL (tested as crude phage supernatant) [Phage-1728 (clonal phage displaying the peptide of SEQ ID NO: 2012)] to HLFCWEGSDRCAWV (tested as crude phage supernatant) [Phage-1727 (clonal phage displaying the peptide of SEQ ID NO: 2011)], the “Anti-PSMA Fab signal” value rises from 0.0694 to 0.0753.

First: FCQWIEATNAWLCY (tested as crude phage supernatant) [Phage-1732 (clonal phage displaying the peptide of SEQ ID NO: 2016)]
Second: NCWWHDFRAGHVVC (tested as crude phage supernatant) [Phage-1723 (clonal phage displaying the peptide of SEQ ID NO: 2007)]
The “Anti-PSMA Fab signal” value of the first is higher: 0.119 for the first, 0.0972 for the second.

Going from EGCLTLVDGRAWCW (tested as crude phage supernatant) [Phage-1735 (clonal phage displaying the peptide of SEQ ID NO: 2019)] to IRCVGEGHDLVCIF (tested as crude phage supernatant) [Phage-1724 (clonal phage displaying the peptide of SEQ ID NO: 2008)], the “Anti-PSMA Fab signal” value rises from 0.0521 to 0.081.

Compared with HCKFHDYHSWYMCY (tested as crude phage supernatant) [Phage-1737 (clonal phage displaying the peptide of SEQ ID NO: 2021)], FCGWMDGDVFWFCG (tested as crude phage supernatant) [Phage-1733 (clonal phage displaying the peptide of SEQ ID NO: 2017)] is higher in “Anti-PSMA Fab signal” value: 0.117 for the first, 0.145 for the second.

Going from MEYCSFHRFTCVLW (tested as crude phage supernatant) [Phage-1736 (clonal phage displaying the peptide of SEQ ID NO: 2020)] to ICQWIGATNAWVCY (tested as crude phage supernatant) [Phage-1726 (clonal phage displaying the peptide of SEQ ID NO: 2010)], the “Anti-PSMA Fab signal” value rises from 0.12 to 0.326.

First: NAHCWLWVPAHCRV (tested as crude phage supernatant) [Phage-1729 (clonal phage displaying the peptide of SEQ ID NO: 2013)]
Second: NCFFAADIHWNFCT (tested as crude phage supernatant) [Phage-1731 (clonal phage displaying the peptide of SEQ ID NO: 2015)]
The “Anti-PSMA Fab signal” value of the first is lower: 0.0672 for the first, 0.18 for the second.

In the case of FGHCAGSPVFCAYW (tested as crude phage supernatant) [Phage-1730 (clonal phage displaying the peptide of SEQ ID NO: 2014)], the “Anti-PSMA Fab signal” value is reported as 0.054.

target: T1, Anti-CD28 scFv (VH - linker 1 - VL); test: phage ELISA; biotinylated anti-CD28 scFv on neutravidin plate, clonal phage supernatant, anti-M13-HRP detection;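 note: before phage addition, wells were pretreated with soluble CD28 protein in blocking buffer, or with blocking buffer only as the comparison, then phage were added without washing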
Description: Clonal phage were harvested as crude supernatants and screened via standard enzyme linked immunosorbent assays (ELISAs). […] Prior to the addition of clonal phage, wells were incubated with blocking buffer and CD28 soluble protein or blocking buffer alone. Without washing or aspirating, clonal phage supernatants were then added to the wells and incubated for a short time. Wells were then washed followed by detection of bound phage using a horse radish peroxidase conjugated anti-M13 antibody.

Going from B1 to B2, the “CD28 scFv signal” value rises from 0.065 to 1.35.

First: B3
Second: B4
The “CD28 scFv signal” value of the first is lower: 0.911 for the first, 1.16 for the second.

Compared with B5, B6 is higher in “CD28 scFv signal” value: 0.094 for the first, 0.103 for the second.

First: B7
Second: B8
The “CD28 scFv signal” value of the first is higher: 1.84 for the first, 0.098 for the second.

First: B9
Second: B10
The “CD28 scFv signal” value of the first is higher: 0.109 for the first, 0.067 for the second.

Compared with B11, B12 is lower in “CD28 scFv signal” value: 0.924 for the first, 0.072 for the second.

Going from B13 to B14, the “CD28 scFv signal” value falls from 1.48 to 0.071.

Going from B15 to B16, the “CD28 scFv signal” value rises from 0.368 to 1.

First: B17
Second: B18
The “CD28 scFv signal” value of the first is higher: 0.817 for the first, 0.097 for the second.

Going from B19 to B20, the “CD28 scFv signal” value falls from 0.899 to 0.741.

target: T2, Anti-PSMA Fab (SEQ ID NOs: 19, 20); test: phage binding ELISA; biotinylated anti-PSMA Fab captured on neutravidin plate, clonal phage supernatant, anti-M13 HRP detection
Description: as §1

First: FCNWVDGDVWVVCK (tested as crude phage supernatant) [Phage-1734 (clonal phage displaying the peptide of SEQ ID NO: 2018)]
Second: SIPCIPRDWLCPIK (tested as crude phage supernatant) [Phage-1725 (clonal phage displaying the peptide of SEQ ID NO: 2009)]
The “Anti-PSMA Fab (SEQ ID NOs: 19, 20) signal” value of the first is lower: 0.51 for the first, 1.8 for the second.

Compared with PLCGTEEVWWECRL (tested as crude phage supernatant) [Phage-1728 (clonal phage displaying the peptide of SEQ ID NO: 2012)], HLFCWEGSDRCAWV (tested as crude phage supernatant) [Phage-1727 (clonal phage displaying the peptide of SEQ ID NO: 2011)] is lower in “Anti-PSMA Fab (SEQ ID NOs: 19, 20) signal” value: 1.57 for the first, 1.4 for the second.

Compared with FCQWIEATNAWLCY (tested as crude phage supernatant) [Phage-1732 (clonal phage displaying the peptide of SEQ ID NO: 2016)], NCWWHDFRAGHVVC (tested as crude phage supernatant) [Phage-1723 (clonal phage displaying the peptide of SEQ ID NO: 2007)] is higher in “Anti-PSMA Fab (SEQ ID NOs: 19, 20) signal” value: 1.06 for the first, 2.05 for the second.

Compared with EGCLTLVDGRAWCW (tested as crude phage supernatant) [Phage-1735 (clonal phage displaying the peptide of SEQ ID NO: 2019)], IRCVGEGHDLVCIF (tested as crude phage supernatant) [Phage-1724 (clonal phage displaying the peptide of SEQ ID NO: 2008)] is higher in “Anti-PSMA Fab (SEQ ID NOs: 19, 20) signal” value: 1.05 for the first, 2.12 for the second.

Compared with HCKFHDYHSWYMCY (tested as crude phage supernatant) [Phage-1737 (clonal phage displaying the peptide of SEQ ID NO: 2021)], FCGWMDGDVFWFCG (tested as crude phage supernatant) [Phage-1733 (clonal phage displaying the peptide of SEQ ID NO: 2017)] is lower in “Anti-PSMA Fab (SEQ ID NOs: 19, 20) signal” value: 1.58 for the first, 0.428 for the second.

Going from MEYCSFHRFTCVLW (tested as crude phage supernatant) [Phage-1736 (clonal phage displaying the peptide of SEQ ID NO: 2020)] to ICQWIGATNAWVCY (tested as crude phage supernatant) [Phage-1726 (clonal phage displaying the peptide of SEQ ID NO: 2010)], the “Anti-PSMA Fab (SEQ ID NOs: 19, 20) signal” value rises from 1.74 to 1.82.

Compared with NAHCWLWVPAHCRV (tested as crude phage supernatant) [Phage-1729 (clonal phage displaying the peptide of SEQ ID NO: 2013)], NCFFAADIHWNFCT (tested as crude phage supernatant) [Phage-1731 (clonal phage displaying the peptide of SEQ ID NO: 2015)] is higher in “Anti-PSMA Fab (SEQ ID NOs: 19, 20) signal” value: 1.35 for the first, 1.48 for the second.

FGHCAGSPVFCAYW (tested as crude phage supernatant) [Phage-1730 (clonal phage displaying the peptide of SEQ ID NO: 2014)] was tested, and the “Anti-PSMA Fab (SEQ ID NOs: 19, 20) signal” value was 1.06.

— patent US20260242478A1 (published 2026)
